{"source": "paper PMC8901441", "about": "“The interplay between BAX and BAK tunes apoptotic pore growth to control mitochondrial-DNA-mediated inflammation” (Molecular Cell, 2022)", "key": {"[1]": {"target": "BAK-488 (full-length mouse BAK L192K, F193S, Y196D, C154S, labelled with Atto 488) (mouse) (UniProt O08734)", "assay": "single-molecule TIRF brightness (stoichiometry) analysis; 1, 5 or 10 nM labelled protein incubated 1 h with EPC:CL 8:2 LUVs (150 mM NaCl, 10 mM HEPES/KOH, pH 7.4), activated by heat (43°C), or 1 nM BAK-488 by 2 nM cBid; proteoliposomes diluted with LUVs and fused into supported lipid bilayers on glass; corrected for partial labelling"}, "[2]": {"target": "the molecule itself", "assay": "single-molecule TIRF brightness (stoichiometry) analysis; 1, 5 or 10 nM labelled protein incubated 1 h with EPC:CL 8:2 LUVs (150 mM NaCl, 10 mM HEPES/KOH, pH 7.4), activated by heat (43°C), or 1 nM BAK-488 by 2 nM cBid; proteoliposomes diluted with LUVs and fused into supported lipid bilayers on glass; corrected for partial labelling"}}}
{"molecule": "BAK-488 (full-length mouse BAK L192K, F193S, Y196D, C154S, labelled with Atto 488) (from UniProt O08734 1-209) (natural protein)", "values": [{"measurement": "stoichiometry N", "setting": "[1]", "result": 2}]}
{"molecule": "BAX-488 (single-cysteine, full-length human BAX S4C, C62S, C126S, labelled with Atto 488) (natural protein, UniProt Q07812 1-192, looked up, Atto 488 covalently attached to the single cysteine, BAX, human, single-cysteine mutant (S4C, C62S, C126S); Plasmid pTYB1_hBAX-S4C,C62S, C126S from a previous study (doi 10.1038/ncomms9042); Labelling efficiency 84%; also called hBAX-S4C,C62S, C126S) MDGCGEQPRGGGPTSSEQIMKTGALLLQGFIQDRAGRMGGEAPELALDPVPQDASTKKLSESLKRIGDELDSNMELQRMIAAVDTDSPREVFFRVAADMFSDGNFNWGRVVALFYFASKLVLKALSTKVPELIRTIMGWTLDFLRERLLGWIQDQGGWDGLLSYFGTPTWQTVTIFVAGVLTASLTIWKKMG", "values": [{"measurement": "stoichiometry N", "setting": "[2]", "result": "≤ 10"}]}
